Laboratory results reported in publication PMC2914791, “Trichomonas Transmembrane Cyclases Result from Massive Gene Duplication and Concomitant Development of Pseudogenes” (PLoS Neglected Tropical Diseases, 2010).

B1: group B cyclase (TVAG_013980), Trichomonas TMAC cyclase domain (Trichomonas vaginalis G3) (protein)
chain: TIFFVDIVKFSNYAAALSPSEIMSNLSLVFSTFDKIVVKYPTILKIKLIGDVYMAAAGIFSDPQMNPSKPAEESVNCCLDIQKVMEQINVKLSAGLEVRIGVNTGGPLIGGVLGTDKPTFDIIGDPINVASRLQ
B2: group A cyclase (TVAG_456550), Trichomonas TMAC cyclase domain (Trichomonas vaginalis G3) (protein)
chain: TILFLDVVEFTPWCGSHDAQYVMRMLNIMFKEFDVITNAHKTMTKIKCIGDCYMAAGGIFDEVNQPPVHAKEVVDFGCKVIKKLLEIDEQENEKLRIRVGINTGGPIVAGVIGTEKPTFEILGPAINIAHEME

Substrate: Nc1ncnc2c1ncn2[C@@H]1O[C@H](COP(=O)(O)OP(=O)(O)OP(=O)(O)O)[C@@H](O)[C@H]1O
Assay: cAMP direct immunoassay, colorimetric
Type: biochemical, Trichomonas vaginalis
Details: 4 µg GST-fusion protein; 0.2 mM GTP present in cAMP assay

Protein | Km [µM]
B1 | 710 ± 10
B2 | 520 ± 10
